Reference: publication PMC8639777 (Nature, 2021)

How the values were obtained:
Test in all cases: BLI
[1] = biological target: human ALK glycine-rich domain (GRD), residues 678-1030, wild type (human, UniProt Q9UM73 678-1030)
[2] = biological target: human ALK GRD (678-1030) E974R (human, UniProt Q9UM73 678-1030, E974R)
[3] = biological target: human ALK GRD (678-1030) E978R (human, UniProt Q9UM73 678-1030, E978R)
[4] = biological target: human ALK GRD (678-1030) Y966R (human, UniProt Q9UM73 678-1030, Y966R)
Chain of human ALK GRD (678-1030) Y966R (Q9UM73 678-1030 Y966R): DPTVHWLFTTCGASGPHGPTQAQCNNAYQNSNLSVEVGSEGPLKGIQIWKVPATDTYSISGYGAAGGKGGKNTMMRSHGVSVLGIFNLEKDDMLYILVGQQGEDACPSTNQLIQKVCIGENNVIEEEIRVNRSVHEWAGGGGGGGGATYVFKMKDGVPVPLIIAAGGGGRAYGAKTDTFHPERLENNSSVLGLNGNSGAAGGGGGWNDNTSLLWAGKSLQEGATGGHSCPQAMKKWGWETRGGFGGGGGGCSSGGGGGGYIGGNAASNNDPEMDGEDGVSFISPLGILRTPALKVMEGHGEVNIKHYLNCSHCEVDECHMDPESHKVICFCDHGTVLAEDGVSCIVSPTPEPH

Chain of human ALK glycine-rich domain (GRD), residues 678-1030, wild type (Q9UM73 678-1030): as the sequence (Q9UM73 678-1030 Y966R) above, with R289Y counted along it
Chain of human ALK GRD (678-1030) E978R (Q9UM73 678-1030 E978R): as the sequence (Q9UM73 678-1030 Y966R) above, with R289Y, E301R counted along it
Chain of human ALK GRD (678-1030) E974R (Q9UM73 678-1030 E974R): as the sequence (Q9UM73 678-1030 Y966R) above, with R289Y, E297R counted along it

B1: human ALKAL2 ALKAL domain (ALKAL2-AD), residues 71-152, wild type (ligand, UniProt Q6UX46 71-152, looked up)
chain: AEAAGLGPSPEQRVEIVPRDLRMKDKFLKHLTGPLYFSPKCSKHFHRLYHNTRDCTIPAYYKRCARLLTRLAVSPVCMEDKQ
Which results are given for B1?
Kd [1]: 0.329 µM; Kd [2]: 1.41 µM; Kd [3]: 6.11 µM; Kd [4]: 5.12 µM

B2: human ALKAL2-AD (71-152) R140E (ligand, UniProt Q6UX46 71-152, looked up)
chain: AEAAGLGPSPEQRVEIVPRDLRMKDKFLKHLTGPLYFSPKCSKHFHRLYHNTRDCTIPAYYKRCARLLTELAVSPVCMEDKQ
With B2 as the binder, how does the Kd [1] read?
The Kd was 2.95 µM.

B3: human ALKAL2-AD (71-152) R123E (ligand, UniProt Q6UX46 71-152, looked up)
chain: AEAAGLGPSPEQRVEIVPRDLRMKDKFLKHLTGPLYFSPKCSKHFHRLYHNTEDCTIPAYYKRCARLLTRLAVSPVCMEDKQ
B3 was tested. Which Kd [1] did it give?
Its Kd is 0.391 µM.
